The experiment has as its target GST-Rac1A, active (GTPγs-bound) (Dictyostelium) (UniProt P34144). As to the kind of experiment: pull-down.

Turning to “GFP-WASP (wild type Dictyostelium WASP) (natural protein)”, the immunoblot quantification of binding (%) came out at 1.9%.

Values taken from doi:10.1101/602425.
